Experiments:
LCLC-103H cells = experiment: In vitro cytotoxicity (CellTiter-Glo, 5 days); assay type: cell-based, human; settings: MMAE-conjugated antibodies
MDA-MB-231 cells = experiment: In vitro cytotoxicity (CellTiter-Glo, 5 days); assay type: cell-based, human; settings: MMAE-conjugated antibodies
[1] = system: LCLC-103H xenograft tumors; experiment: LCLC-103H xenograft model; assay type: in vivo, SCID mice
Experimental: 5 × 10^6 LCLC-103H (large cell lung carcinoma) tumor cells (obtained from Leibniz-Institut DSMZ-Deutsche Sammlung von Mikroorganismen und Zellkulturen GmbH (DSMZ)) in 200 µL PBS were injected subcutaneously in the right flank of female SCID mice. Starting 14-21 days after tumor cell inoculation, when the average tumor size was >100-200 mm^3 and distinct tumor growth was observed, a single injection with 1 mg/kg (20 µg/mouse) IgG1-AXL-vcMMAE antibodies (as described in Supplementary Example 1) or control (unconjugated IgG1-b12) was given intraperitoneally (100 µL/mouse). Tumor volume was determined at least two times per week. Tumor volumes (mm^3) were calculated from caliper (PLEXX) measurements as: 0.52 × (length) × (width)^2.
(§1) Tumor induction was performed by subcutaneous injection of 5 × 10^6 A431 or LCLC-103H tumor cells (both obtained from Leibniz-Institut - Deutsche Sammlung von Mikroorganismen und Zellkulturen GmbH (DSMZ)) in 200 µL PBS in the right flank of female SCID mice. Treatment was started 14-21 days after tumor cell inoculation, when the average tumor size was >100-200 mm^3 and distinct tumor growth was observed. Mice received a single injection or a total of 4 biweekly intraperitoneal injections with IgG1-AXL-vcMMAE ADCs or control antibody (unconjugated IgG1-b12), as indicated. Tumor volume was determined at least two times per week. Tumor volumes (mm^3) were calculated from caliper (PLEXX) measurements as: 0.52 × (length) × (width)^2.

PAXF1657 tumors = experiment: PAXF1657 pancreas cancer PDX model; assay type: in vivo, NMRI nu/nu mice
A431 tumors = experiment: A431 xenograft model (high Gas6); assay type: in vivo, SCID mice; settings: 3 mg/kg
Experimental: as §1

A431 cells = settings: MMAE-conjugated antibodies, 5 days

B1: IgG1-AXL-148-vcMMAE (conjugate)
VH: EVQLLESGGGLVQPGGSLRLSCAASGFTFSSYAMTWVRQAPGKGLEWVSAISISGGSTFYADSVKGRFTISRDNSKNTLYLQMNSLRAEDTAVYYCRGYSGYVYDAFDFWGQGTMVTVSS
VL: DIQMTQSPSSLSASVGDRVTITCRASQGISNWLAWYQQKPEKAPKSLIYAASSLQSGVPSRFSGSGSGTDFTLTISSLQPEDFATYYCQQYNSYPLTFGGGTKVEIK
Cytotoxicity in LCLC-103H cells EC50 (LCLC-103H cells): 0.012 µg/mL | Cytotoxicity EC50 (µg/mL) MDA-MB231 (n=2) Mean (MDA-MB-231 cells): 0.012 µg/mL | anti-tumor activity in the LCLC-103H xenograft model ([1]; 3 mg/kg (Example 13, FIG. 14A)): tumor regression | anti-tumor activity in established SC LCLC-103H tumors ([1]; single injection 1 mg/kg intraperitoneally (Example 9)): tumor regression | growth of PAXF1657 tumors compared to the control group (PAXF1657 tumors; 2 mg/kg i.v., day 0): significantly reduced the growth | growth of PAXF1657 tumors (PAXF1657 tumors; 4 mg/kg i.v., day 0): induced tumor regression | anti-tumor activity in the PAXF1657 model (FIG. 10B, 10C) (PAXF1657 tumors; mouse, in vivo): dose-dependent antitumor activity | anti-tumor activity in the A431 xenograft model (A431 tumors): growth inhibition | Cytotoxicity EC50 (µg/mL) A431 (n=3) Mean (A431 cells): 0.070 µg/mL
